B1: recombinant C-term portion of OPN (aa 168-314) (domain or fragment)
chain: not shown
notes: Osteopontin, C-terminal thrombin-generated fragment, aa 168-314; also called OPN-C; OPN-C terminal; source: recombinant
B2: recombinant N-term portion of OPN (aa 17-167) (domain or fragment)
chain: not shown
notes: Osteopontin, N-terminal thrombin-generated fragment, aa 17-167; also called OPN-N; OPN-N terminal; source: recombinant
B3: soluble recombinant ICOSL-Fc (Fc fusion, UniProt O75144 19-256, looked up)
chain: DTQEKEVRAMVGSDVELSCACPEGSRFDLNDVYVYWQTSESKTVVTYHIPQNSSLENVDSRYRNRALMSPAGMLRGDFSLRLFNVTPQDEQKFHCLVLSQSLGFQEVLSVEVTLHVAANFSVPVVSAPHSPSQDELTFTCTSINGYPRPNVYWINKTDNSLLDQALQNDTVFLNMRGLYDVVSVLRIARTPSVNIGCCIENVLLQQNLTVGSQTGNDIGERDKITENPVSTGEKNAAT
notes: also called B7-H2; CD275; source: bought: Bio-Techne / R&D

How the values were obtained:
Assay in all cases: ELISA; OPN preparation (60 nM in PBS) coated on MaxiSorp plates; ICOSL-Fc titrated from 60 nM to 1.8 nM in PBS + 0.05% Tween-20, 1 h at 25 C, with or without 60 nM ICOS-Fc, or ICOS-Fc alone; detected with HRP anti-human-IgG1
Details in all cases: both partners purified
[1] = molecular target: B3
[2] = molecular target: T1, GST-OPN fusion protein (human OPNa) produced in E. coli (human, UniProt P10451-1 17-314)
T1 construct: human Osteopontin OPNa; also called OPN-GST; huGST-OPN; source: E. coli BL21 (DE3), purified (Glutathione Sepharose)
T1 sequence (P10451 17-314): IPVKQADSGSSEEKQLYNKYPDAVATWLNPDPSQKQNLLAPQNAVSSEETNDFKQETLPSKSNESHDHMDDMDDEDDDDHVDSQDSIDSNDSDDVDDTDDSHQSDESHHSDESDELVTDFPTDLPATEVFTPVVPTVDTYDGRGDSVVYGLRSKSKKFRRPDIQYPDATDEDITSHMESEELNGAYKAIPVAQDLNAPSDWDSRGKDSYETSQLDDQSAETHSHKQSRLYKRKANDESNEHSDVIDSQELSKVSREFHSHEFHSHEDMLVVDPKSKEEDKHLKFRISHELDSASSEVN

[3] = molecular target: T2, full-length OPN (OPN-a) produced in an eukaryotic system ( (human or mouse cDNA cloned), UniProt P10451-1 17-314)
T2 construct: Osteopontin, full-length form OPN-a; Secreted into the supernatant, so the signal peptide is probably absent (surmise); also called OPN-FL; home-made OPN-FL; source: CHO cells, stably transfected (pUCOE vector), purified from supernatant on nickel-nitrilotriacetic agarose
T2 sequence (P10451 17-314): as above

Row | binding result [1] | binding result [2] | binding result [3] | Binder
1 | binds | – | – | B1
2 | binds | – | – | B2
3 | – | binds | binds | B3

From article PMC7588454, “Osteopontin binds ICOSL promoting tumor metastasis” (Communications Biology, 2020)
